Consider 21 molecules from patent US20220185898A1 (Alector, published 2022).

Changes are numbered by the printed parent chain.

The labels stand for the following.
B1: S-26 (antibody, V domains shown)
VH: EVQLVESGGGLVKPGGSLRLSCAASGFTFSSYSMNWVRQAPGKGLEWVSSISSSSSYIYYADSVKGRFTISRDNAKNSLYLQMNSLRAEDTAVYYCARDRLGRGYKWNWFDPWGQGTLVTVSS
VL: DIQMTQSPSSVSASVGDRVTITCRASQGIDSWLAWYQQKPGKAPKLLIYAASSLQSGVPSRFSGSGSGTDFTLTISSLQPEDFATYYCQQGNSLPPITFGGGTKVEIK
notes: IgG
B2: S-51 (antibody, V domains shown)
VH: QVQLVESGGGVVQPGRSLRLSCAASGFTFSSYGMHWVRQAPGKGLEWVAVISYDGSNKYYADSVKGRFTISRDNSKNTLYLQMNSLRAEDTAVYYCAKGLEYYDSSRLYYPYYYYMDVWGKGTTVTVSS
VL: EIVLTQSPATLSLSPGERATLSCRASQSVSSYLAWYQQKPGQAPRLLIYDASKRATGIPARFSGSGSGTDFTLTISSLEPEDFAVYYCQQRSNYPITFGGGTKVEIK
notes: IgG
B3: S-40 (antibody, V domains shown)
VH: not shown
VL: B2 VL with L4M, K53N, N93A, Y94L, I96F
notes: IgG
B4: S-64 (antibody, V domains shown)
VH: QVQLQESGPGLVKPSETLSLTCAVSGYSISSGYYWGWIRQPPGKGLEWIGSIYHSGSTYYNPSLKSRVTISVDTSKNQFSLKLSSVTAADTAVYYCARAEHRGPRYFDLWGRGTLVTVSS
VL: DIQMTQSPSSLSASVGDRVTITCRASQSINSYLNWYQQKPGKAPKLLIYAASSLQSGVPSRFSGSGSGTDFTLTISSLQPEDFATYYCQQLDSTPITFGGGTKVEIK
notes: IgG
B5: S-76 (antibody, V domains shown)
VH: QVQLQESGPGLVKPSQTLSLTCTVSGGSISSGGYYWSWIRQHPGKGLEWIGSIYYSGSTYYNPSLKSRVTISVDTSKNQFSLKLSSVTAADTAVYYCARGVGIQQQLVLGFDPWGQGTLVTVSS
VL: B4 VL with N30S, Y32F, Y49S, L91S, D92Y, S93R, T94E
notes: IgG
B6: S-16 (antibody, V domains shown)
VH: QVQLVQSGAEVKKPGSSVKVSCKASGGTFSSYAISWVRQAPGQGLEWMGGIIPIFGTANYAQKFQGRVTITADESTSTAYMELSSLRSEDTAVYYCARSPYSGTRDFDLWGRGTLVTVSS
VL: B4 VL with L11V, S28G, N30S, Y32W, N34A, S53N, L91G, D92N, T94Y
notes: IgG
B7: S-65 (antibody, V domains shown)
VH: B4 VH with A99E, E100G, H101Q, R102L, G103P, P104T, R105G, Y106T, L109Y, R112Q
VL: not shown
notes: IgG
B8: S-6 (antibody, V domains shown)
VH: not shown
VL: EIVMTQSPATLSVSPGERATLSCRASQSVSSNLAWYQQKPGQAPRLLIYGASTRATGIPARFSGSGSGTEFTLTISSLQSEDFAVYYCQQVANYPRTFGGGTKVEIK
notes: IgG; also called S-06
B9: S-69 (antibody, V domains shown)
VH: QVQLQESGPGLVKPSQTLSLTCTVSGGSISSGGYYWSWIRQHPGKGLEWIGYIYYSGSTYYNPSLKSRVTISVDTSKNQFSLKLSSVTAADTAVYYCARDRGGTHFGADHYYYGMDVWGQGTMVTVSS
VL: B8 VL with N32S, V91A, N93D, Y94W, R96I
notes: IgG
B10: S-4 (antibody, V domains shown)
VH: not shown
VL: B8 VL with V91F, A92R, N93V, Y94L, R96P
notes: IgG
B11: S-58 (antibody, V domains shown)
VH: QVQLQESGPGLVKPSETLSLTCAVSGYSISSGYYWGWIRQPPGKGLEWIGSIYHSGNTYYNPSLKSRVTISVDTSKNQFSLKLSSVTAADTAVYYCARGPPELGKMYFQHWGQGTLVTVSS
VL: B8 VL with M4L, V91D, A92R, N93K, Y94G, R96L
notes: IgG
B12: S-83 (antibody, V domains shown)
VH: QLQLQESGPGLVKPSETLSLTCTVSGGSISSSSYYWGWIRQPPGKGLEWIGSIYYSGSTYYNPSLKSRVTISVDTSKNQFSLKLSSVTAADTAVYYCARGSPTWLRDYYMDVWGKGTTVTVSS
VL: B8 VL with M4L, V91Y, A92N, N93A, Y94F, R96P
notes: IgG
B13: S-9 (antibody, V domains shown)
VH: QVQLVQSGAEVKKPGASVKVSCKASGYTFTSYGISWVRQAPGQGLEWMGWISAYNGNTNYAQKLQGRVTMTTDTSTSTAYMELRSLRSDDTAVYYCARDPGGYGPTLYYYYGMDVWGQGTTVTVSS
VL: B8 VL with V91Y, A92N, N93I, R96L
notes: IgG
B14: S-61 (antibody, V domains shown)
VH: QVQLQESGPGLVKPSETLSLTCAVSGYSISSGYYWGWIRQPPGKGLEWIGSIYHSGSTYYNPSLKSRVTISVDTSKNQFSLKLSSVTAADTAVYYCARGSPRFYYGSGSYLDLFDIWGQGTMVTVSS
VL: B8 VL with Q90E, V91Y, A92L, R96I
notes: IgG
B15: S-78 (antibody, V domains shown)
VH: QLQLQESGPGLVKPSETLSLTCTVSGGSISSSDYYWGWIRQPPGKGLEWIGSIYYSGSTYYNPSLKSRVTISVDTSKNQFSLKLSSVTAADTAVYYCARSLAMSGAYFDLWGRGTLVTVSS
VL: not shown
notes: IgG
B16: S-81 (antibody, V domains shown)
VH: QLQLQESGPGLVKPSETLSLTCTVSGGSISSSSYYWGWIRQPPGKGLEWIGSIYYSGSTYYNPSLKSRVTISVDTSKNQFSLKLSSVTAADTAVYYCARERWDLGHGMDVWGQGTTVTVSS
VL: not shown
notes: IgG
B17: S-73 (antibody, V domains shown)
VH: QVQLQESGPGLVKPSQTLSLTCTVSGGSISSGTYYWSWIRQHPGKGLEWIGYIYYSGSTYYNPSLKSRVTISVDTSKNQFSLKLSSVTAADTAVYYCARGVGRYRVADYWGQGTLVTVSS
VL: EIVLTQSPATLSLSPGERATLSCRASQSVSSYLAWYQQKPGQAPRLLIYDASNRATGIPARFSGSGSGTDFTLTISSLEPEDFAVYYCQQASVYPPITFGGGTKVEIK
notes: IgG
B18: S-74 (antibody, V domains shown)
VH: B17 VH
VL: B17 VL with L4M, A51S, A91E, S92T, V93N, Y94M
notes: IgG
B19: S-84 (antibody, V domains shown)
VH: QLQLQESGPGLVKPSETLSLTCTVSGGSISSSSYYWGWIRQPPGKGLEWIGSISYSGSTYYNPSLKSRVTISVDTSKNQFSLKLSSVTAADTAVYYCARGGTTWLVADVWGQGTMVTVSS
VL: not shown
notes: IgG
B20: S-12 (antibody, V domains shown)
VH: QVQLVQSGAEVKKPGASVKVSCKASGYTFTSYGISWVRQAPGQGLEWMGWISAYNGNTNYAQKLQGRVTMTTDTSTSTAYMELRSLRSDDTAVYYCARDLPKYKWGWFDPWGQGTLVTVSS
VL: not shown
notes: IgG
B21: S-55 (antibody, V domains shown)
VH: QVQLQESGPGLVKPSETLSLTCAVSGYSISSGYYWGWIRQPPGKGLEWIGSIYHSGSTYYNPSLKSRVTISVDTSKNQFSLKLSSVTAADTAVYYCARGRPELGWDKYFQHWGQGTLVTVSS
VL: DIQMTQSPSSVSASVGDRVTITCRASQGISRWLAWYQQKPGKAPKLLIYAASSLQSGVPSRFSGSGSGTDFTLTISSLQPEDFATYYCQQANALPTFGGGTKVEIK
notes: IgG

The first experiment concerns the target T1, human Sortilin expressed on 293 / HEK293T cells (human, UniProt Q99523 78-830).
T1 construct: full-length recombinant human Sortilin; also called hSort; SORT1
As to the kind of experiment: FACS, 293 cells.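 Also: antibodies at 10 µg/ml bound to cells for 1 h on ice, detected with PE-labelled anti-human secondary antibody by flow cytometry, reported as mean fluorescence intensity.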
Take B1: the MFI is 9020.
With B2, the MFI is 12200.
The same measure, in the same setting: to B3 belongs 7410; to B4, 7930; to B5, 9680.
On the same count and under the same terms, for B6 the value was 6280; for B7, 8070; for B8, 11100.
B9 had an MFI of 8580.
As to B10, the MFI was determined as 9120.
B11 yielded an MFI of 7770.
For the molecule B12, the MFI came to 9300.
As for B13, the MFI was 10300.
Take B14: the MFI came out at 7480.
Turning to B15, the MFI was found to be 7120.
Regarding B16, the MFI was 8940.
Same read-out and setting: to B17 belongs 8070.
The molecule B18 displayed an MFI of 9210.
The molecule B19 registered an MFI of 9240.
On to B20, for which the MFI amounted to 9760.
With B21, the MFI amounted to 9480.

The target in another experiment is T2, mouse Sortilin expressed on 293 / HEK293T cells (mouse, UniProt Q6PHU5 74-825).
T2 construct: full-length recombinant mouse Sortilin; also called mSort; msSort
Put plainly: FACS, 293 cells.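 Also: antibodies at 10 µg/ml bound to cells for 1 h on ice, detected with PE-labelled anti-human secondary antibody by flow cytometry, reported as mean fluorescence intensity.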
Turning to B1, the MFI came out at 20900.
B2 gave an MFI of 21900.
On the same count and under the same terms, for B3 the value was 2630; for B5, 4180; for B7, 17900.
B8 displayed an MFI of 25600.
On to B9, for which the MFI was determined as 1890.
In turn, B10 gave an MFI of 15700.
For the molecule B11, the MFI worked out at 15100.
As to B13, the MFI was determined as 22200.
In turn, B14 showed an MFI of 21800.
B15 came in with an MFI of 7930.
Same read-out and setting: to B16 belongs 16600; to B17, 7670; to B18, 7300.
Same read-out and setting: to B19 belongs 15400; to B20, 18800.
B21 returned an MFI of 21400.

A further experiment addresses T3, human Sortilin Fc fusion protein (human, UniProt Q99523 78-755).
T3 construct: whole entry named; also called hSort-Fc
As to the kind of experiment: ForteBio, avid.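 Also: whole IgG captured on AHQ sensors, then contacted with Sortilin Fc fusion antigen at 100 nM, followed by an off-rate phase in buffer.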
B1: the Kd is 2.88 nM. This counts as single-digit nanomolar.
Molecule B2 yielded a Kd of 4.12 nM.
Same read-out and setting: for B3 the value was 2.43 nM.
Take B6: the Kd is 3.8 nM.
The molecule B9 had a Kd of 4.29 nM.
On to B10, for which the affinity, expressed as Kd, was 4.5 nM.
Molecule B11 showed a Kd of 2.59 nM.
In turn, B12 had a Kd of 1.79 nM. The Kd values of the last two molecules are within 1.5-fold of each other.
B13 yielded a Kd of 6.98 nM. This Kd lies about 3.9-fold higher than the previous one.
Same read-out and setting: for B14 the value was 4.26 nM; for B15, 3.51 nM; for B16, 2.2 nM.
As for B17, the Kd is 3.33 nM.
For the molecule B18, the Kd worked out at 3.05 nM.
In the case of B19, binding was characterised by a dissociation constant (Kd) of 4.4 nM. This Kd and that of the molecule before are within 1.5-fold of each other.
With B20, the Kd was 9.35 nM.
B21 gave a Kd of 2.28 nM.

In another experiment the target is T4, mouse Sortilin Fc fusion protein (mouse; human, UniProt Q6PHU5 74-754).
T4 construct: whole entry named; also called mSort-Fc
As to the kind of experiment: ForteBio, avid.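 Also: whole IgG captured on AHQ sensors, then contacted with Sortilin Fc fusion antigen at 100 nM, followed by an off-rate phase in buffer.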
As for B2, the affinity, expressed as Kd, was 1.21 nM.
Molecule B4 registered a Kd of 24.2 nM.
On the same count and under the same terms, to B5 belongs 19 nM; to B7, 6.9 nM; to B9, 20.1 nM.
Turning to B10, binding was put at a Kd of 1.55 nM. This Kd is about 13-fold lower than that of the molecule before.
B11 showed a Kd of 0.8 nM.
In the case of B13, the Kd came out at 2.16 nM.
Still for that read-out and setting: to B14 belongs 2.45 nM; to B15, 10.6 nM.
B17 had a Kd of 19.7 nM.
In turn, B21 came in with a Kd of 1.13 nM.
